Data set [1] concerns peptide #11 (Optimized PKCβ Sub.), alanine-substituted, in PKCα FRET sensor.
For data set [2], the system named is peptide #14 (PKCα pseudosubstrate), alanine-containing.
Data set [3] relates to peptide #14, aspartic acid-containing (phosphomimetic).

As for human PKCα catalytic domain, the “kinase activity of the 10 nm peptide FRET sensor for the same substrate” value in data set [1] is “the higher affinity peptide sensor (#11) had a much lower activity than the lower affinity peptide sensor (#8)”. Also, the “ATP turnover of the catalytic domain for serine-containing peptide #14 with equimolar competitor peptide” value in data set [2] and in data set [3] was “the alanine-substituted peptide was significantly better at inhibiting catalytic activity” throughout. Moreover, the “basal kinase activity of the sensor (10 nm vs 30 nm ER/K linker) for the same substrate peptide” value in data set [2] is “the sensor with the 30 nm linker had significantly higher activity than the 10 nm linker for the same substrate peptide”.

Values taken from US20200181677.
